# Results published in the supplement of paper PMC6757056.
# ± gives the standard deviation of the averaged measurements.
# B1: library; a variant is named by its letters at N, in order (parent)
# chain: GCUGUCACCGGUGCUUGGUACGUUAUAUUCAGCCGGUCUGAUGAGUCUNNNNNNAGACGAAACAGC
# Assays:
# [1] = variants of: B1; assay: FACS-Seq fitted mean relative fluorescence mCherry/BFP without ligand (log10 relative fluorescence); HEK293T overexpressing SLC46A1; higher = higher reporter protein expression; settings: without (6R,S)-folinic acid; ligand present: no
# Method in brief: (§1)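 Genomic DNA from 6 mCherry/BFP sort bins was PCR-amplified, barcoded and sequenced on MiSeq. The sorted cells were enriched HEK293T libraries, lentivirally transduced with a ribozyme-switch mCherry reporter and an EF1α-BFP marker, incubated with or without ligand for 48 h. Fluorescence derives from a normal fit to the bin counts. The fit was on log10(mCherry/BFP), and means were scaled to five spiked-in control ribozymes.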
# [2] = variants of: B1; assay: normalized RNA/DNA level without ligand (relative to sTRSVctl = 100) (log10 (% of sTRSVctl)); HEK293T overexpressing SLC46A1; higher = less ribozyme self-cleavage, higher mRNA level; settings: without (6R,S)-folinic acid; ligand present: no
# Method in brief: (§2)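 HEK293T cells were transfected with library plasmids carrying ribozyme switches linked to an mCherry reporter, or an eGFP reporter in some ligand experiments, at 4 µg per well of a 6-well plate, with any ligand added 1 h beforehand. After 72 h, total RNA was extracted with EDTA, reverse-transcribed, amplified, barcoded and sequenced. RNA level was defined as RNA reads over DNA reads, normalized to a spiked-in non-cleaving sequence or to the top-ranked sequences. That value was multiplied by 100 and converted to log10, the top set was 25 sequences, and only sequences with ≥100 DNA reads were retained.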
# [3] = variants of: B1; assay: FACS-Seq fitted mean relative fluorescence mCherry/BFP with ligand (log10 relative fluorescence); HEK293T overexpressing SLC46A1; ligand concentration (+) FACS-Seq: 6 mM; higher = higher reporter protein expression; settings: with (6R,S)-folinic acid; ligand present: yes
# Method in brief: as §1
# [4] = variants of: B1; assay: normalized RNA/DNA level with ligand (relative to sTRSVctl = 100) (log10 (% of sTRSVctl)); HEK293T overexpressing SLC46A1; ligand concentration (+) RNA-Seq: 6 mM; higher = less ribozyme self-cleavage, higher mRNA level; settings: with (6R,S)-folinic acid; ligand present: yes
# Method in brief: as §2
Variant,FACS-Seq fitted mean (log10) [1],normalized RNA/DNA level without ligand (log10) [2],FACS-Seq fitted mean (log10) [3],normalized RNA/DNA level with ligand (log10) [4]
AGUUGA,0.17 ± 0.13,1.964 ± 0.015,0.105 ± 0.028,2.018 ± 0.016
CGUGAC,0.241 ± 0.037,2.015 ± 0.01,0.201 ± 0.09,1.99 ± 0.052
CGUGAA,0.328 ± 0.19,1.9509 ± 0.0012,0.192 ± 0.33,2.01 ± 0.028
UGUAAA,0.596 ± 0.02,1.924 ± 0.0087,0.761 ± 0.19,1.993 ± 0.0085
UGUAAU,0.41 ± 0.068,1.886 ± 0.0076,0.35 ± 0.072,1.994 ± 0.0024
UGUAAG,0.295 ± 0.0061,1.666 ± 0.0027,0.624 ± 0.062,1.94 ± 0.033
GUACAC,0.175 ± 0.17,1.984 ± 0.01,0.311 ± 0.16,2.029 ± 0.019
GUACAG,0.519 ± 0.15,1.938 ± 0.018,0.81 ± 0.0085,2 ± 0.024
GGUAUA,0.316 ± 0.031,1.987 ± 0.0071,0.271 ± 0.15,2 ± 0.032
GGUAUG,0.288 ± 0.015,1.986 ± 0.01,0.241 ± 0.14,2.01 ± 0.021
GGUAAU,0.342 ± 0.044,1.992 ± 0.015,0.504 ± 0.12,2.03 ± 0.043
GGUAAA,0.462 ± 0.11,1.979 ± 0.014,0.474 ± 0.38,2 ± 0.03
GGUAAG,0.539 ± 0.082,1.919 ± 0.0032,0.424 ± 0.051,2 ± 0.036
AUAAUA,0.469 ± 0.017,1.982 ± 0.0023,0.369 ± 0.62,1.992 ± 0.015
UUACCC,0.388 ± 0.015,2.018 ± 0.015,0.263 ± 0.21,2.01 ± 0.03
CGUGGA,0.378 ± 0.16,1.988 ± 0.014,0.668 ± 0.33,2.02 ± 0.043
UGUAUC,-0.0452 ± 0.058,2.016 ± 0.019,-0.247 ± 0.051,1.99 ± 0.028
UGUAUG,-0.0525 ± 0.085,1.707 ± 0.007,0.265 ± 0.086,1.96 ± 0.039

Variant,FACS-Seq fitted mean (log10) [1],normalized RNA/DNA level without ligand (log10) [2],FACS-Seq fitted mean (log10) [3],normalized RNA/DNA level with ligand (log10) [4]
UGUAUU,0.438 ± 0.16,1.9737 ± 0.0017,0.253 ± 0.086,2.01 ± 0.032
CGUAUA,0.0787 ± 0.09,1.93 ± 0.025,0.189 ± 0.17,1.983 ± 0.016
CGUAUU,-0.147 ± 0.033,2.034 ± 0.011,0.0205 ± 0.0068,2.03 ± 0.037
GUAAUG,0.394 ± 0.16,1.94 ± 0.023,0.532 ± 0.053,1.98 ± 0.038
GUAAUC,0.0594 ± 0.051,2.09 ± 0.023,-0.00665 ± 0.0039,2.063 ± 0.0092
GUAAUA,-0.154 ± 0.025,1.996 ± 0.006,0.161 ± 0.059,1.97 ± 0.039
AGUGGA,0.399 ± 0.14,1.963 ± 0.018,0.327 ± 0.082,2.015 ± 0.0071
UGUGGA,-0.112 ± 0.058,1.816 ± 0.0017,0.123 ± 0.11,2 ± 0.027
UGUGGU,0.0696 ± 0.063,1.89 ± 0.022,0.265 ± 0.0042,2 ± 0.054
UGUGGG,0.109 ± 0.02,1.6031 ± 0.0006,0.695 ± 0.086,1.96 ± 0.017
UGGUAU,0.259 ± 0.18,1.926 ± 0.0022,0.274 ± 0.046,1.99 ± 0.015
UGGUAG,0.0552 ± 0.19,1.5837 ± 9.7e-05,0.505 ± 0.61,1.935 ± 0.017
GGGUCG,0.531 ± 0.011,2.082 ± 0.0039,0.432 ± 0.17,2.06 ± 0.05
AUAACU,-0.545 ± 0.34,2.009 ± 0.007,-0.619 ± 0.76,2.02 ± 0.038
AUAACC,-0.122 ± 0.045,2.011 ± 0.015,-0.194 ± 0.26,2 ± 0.034
AUAACA,0.394 ± 0.16,2 ± 0.017,0.263 ± 0.35,1.98 ± 0.033
CUAAGU,0.502 ± 0.033,2 ± 0.022,0.535 ± 0.079,1.995 ± 0.0037
CGUUAA,0.362 ± 0.031,1.97 ± 0.016,0.486 ± 0.18,1.98 ± 0.025
